# Measured values reported in US6441131.
# T1: peptide of Example 2(16)
# T1 chain: NPQQAXX
# T2: Nα-Me-GlySerGlyAla(2-Naph)AlaAla-DCHA.TFMSA
# T2 chain: GSGXAX
# T3: peptide of Example 2(78)
# T3 chain: LSEXAX
# T4: peptide of Example 2(34)
# T4 chain: PQDEXX
# T5: peptide of Example 2(11)
# T5 chain: PQQAXX
# T6: peptide of Example 2(45)
# T6 chain: PTSEXX
# T7: Nα-Me-GlyLeuSerGluAla(2-Naph)Ala-pNA.TFMSA
# T7 chain: GLSEXX
# T8: peptide of Example 2(56)
# T8 chain: SLSEXX
# T9: peptide of Example 2(53)
# T9 chain: QLSEXX
# T10: peptide of Example 2(18)
# T10 chain: APQQAXX
# T11: peptide of Example 2(51)
# T11 chain: GLSEXX
# T12: peptide of Example 2(14)
# T12 chain: KPQQAXX
# T13: peptide of Example 2(39)
# T13 chain: PMSEXX
# T14: peptide of Example 2(63)
# T14 chain: PNNLSEXX
# T15: peptide of Example 2(23)
# T15 chain: PQQQXX
# T16: peptide of Example 2(22) (not fully specified)
# T16 chain: PQQNXX
# T17: peptide of Example 2(69)
# T17 chain: XLSEXX
# T18: peptide of Example 2(25)
# T18 chain: PQQMXX
# T19: peptide of Example 2(3)
# T19 chain: PQQAXX
# T20: peptide of Example 2(83)
# T20 chain: GLSEXAX
# T21: ProLeuSerGluAla(2-Naph)Ala-pNA
# T21 chain: PLSEXX
# T22: peptide of Example 2(36)
# T22 chain: PNSEXX
# T23: peptide of Example 2(54)
# T23 chain: KLSEXX
# T24: peptide of Example 2(24)
# T24 chain: PQQGXX
# T25: peptide of Example 2(61)
# T25 chain: KNLSEXX
# T26: peptide of Example 2(33)
# T26 chain: PQEEXX
# T27: peptide of Example 2(80)
# T27 chain: LSEXAX
# T28: peptide of Example 2(57)
# T28 chain: TLSEXX
# T29: peptide of Example 2(7)
# T29 chain: PQQAXX
# Key:
# peptide of Example 2(16) = molecular target: T1, peptide of Example 2(16)
# [1] = molecular target: T2, Nα-Me-GlySerGlyAla(2-Naph)AlaAla-DCHA.TF …
# peptide of Example 2(78) = molecular target: T3, peptide of Example 2(78)
# peptide of Example 2(34) = molecular target: T4, peptide of Example 2(34)
# peptide of Example 2(11) = molecular target: T5, peptide of Example 2(11)
# peptide of Example 2(45) = molecular target: T6, peptide of Example 2(45)
# [2] = molecular target: T7, Nα-Me-GlyLeuSerGluAla(2-Naph)Ala-pNA.TFM …
# peptide of Example 2(56) = molecular target: T8, peptide of Example 2(56)
# peptide of Example 2(53) = molecular target: T9, peptide of Example 2(53)
# peptide of Example 2(18) = molecular target: T10, peptide of Example 2(18)
# peptide of Example 2(51) = molecular target: T11, peptide of Example 2(51)
# peptide of Example 2(14) = molecular target: T12, peptide of Example 2(14)
# peptide of Example 2(39) = molecular target: T13, peptide of Example 2(39)
# peptide of Example 2(63) = molecular target: T14, peptide of Example 2(63)
# peptide of Example 2(23) = molecular target: T15, peptide of Example 2(23)
# peptide of Example 2(22) = molecular target: T16, peptide of Example 2(22)
# peptide of Example 2(69) = molecular target: T17, peptide of Example 2(69)
# peptide of Example 2(25) = molecular target: T18, peptide of Example 2(25)
# peptide of Example 2(3) = molecular target: T19, peptide of Example 2(3)
# peptide of Example 2(83) = molecular target: T20, peptide of Example 2(83)
# [3] = molecular target: T21, ProLeuSerGluAla(2-Naph)Ala-pNA
# peptide of Example 2(36) = molecular target: T22, peptide of Example 2(36)
# peptide of Example 2(54) = molecular target: T23, peptide of Example 2(54)
# peptide of Example 2(24) = molecular target: T24, peptide of Example 2(24)
# peptide of Example 2(61) = molecular target: T25, peptide of Example 2(61)
# peptide of Example 2(33) = molecular target: T26, peptide of Example 2(33)
# peptide of Example 2(80) = molecular target: T27, peptide of Example 2(80)
# peptide of Example 2(57) = molecular target: T28, peptide of Example 2(57)
# peptide of Example 2(7) = molecular target: T29, peptide of Example 2(7)
protein,measurement,setting,value
human pepsin II (protein) SVTYEPMAYMDAAYFGEISIGTPPQNFLVLFDTGSSNLWVPSVYCQSQACTSHSRFNPSESSTYSTNGQTFSLQYGSGSLTGFFGYDTLTVQSIQVPNQEFGLSENEPGTNFVYAQFDGIMGLAYPALSVDEATTAMQGMVQEGALTSPVFSVYLSNQQGSSGGAVVFGGVDSSLYTGQIYWAPVTQELYWQIGIEEFLIGGQASGWCSEGCQAIVDTGTSLLTVPQQYMSALLQATGAQEDEYGQFLVNCNSIQNLPSLTFIINGVEFPLPPSSYILSNNGYCTVGVEPTYLSSQNGQPLWILGDVFLRSYYSVYDLGNNRVGFATAA,pepsin II digesting rate (µM/min · 1 µg Enz),peptide of Example 2(16),8.95
same,ration of digesting rate (pepsin II/ pepsin I),peptide of Example 2(16),1090
same,pepsin II digesting rate (µM/min · 1 µg Enz),[1],33.1
same,ration of digesting rate (pepsin II/ pepsin I),[1],120
same,pepsin II digesting rate (µM/min · 1 µg Enz),peptide of Example 2(78),54.4
same,ration of digesting rate (pepsin II/ pepsin I),peptide of Example 2(78),20.7
same,pepsin II digesting rate (µM/min · 1 µg Enz),peptide of Example 2(34),15.4
same,ration of digesting rate (pepsin II/ pepsin I),peptide of Example 2(34),712
same,pepsin II digesting rate (µM/min · 1 µg Enz),peptide of Example 2(11),4.1
same,ration of digesting rate (pepsin II/ pepsin I),peptide of Example 2(11),175
same,pepsin II digesting rate (µM/min · 1 µg Enz),peptide of Example 2(45),40.5
same,ration of digesting rate (pepsin II/ pepsin I),peptide of Example 2(45),161
same,pepsin II digesting rate (µM/min · 1 µg Enz),[2],49.6
same,ration of digesting rate (pepsin II/ pepsin I),[2],158
same,pepsin II digesting rate (µM/min · 1 µg Enz),peptide of Example 2(56),10.9
same,ration of digesting rate (pepsin II/ pepsin I),peptide of Example 2(56),563
same,pepsin II digesting rate (µM/min · 1 µg Enz),peptide of Example 2(53),62
same,ration of digesting rate (pepsin II/ pepsin I),peptide of Example 2(53),621
same,pepsin II digesting rate (µM/min · 1 µg Enz),peptide of Example 2(18),9.2
same,ration of digesting rate (pepsin II/ pepsin I),peptide of Example 2(18),757
same,pepsin II digesting rate (µM/min · 1 µg Enz),peptide of Example 2(51),54.4
same,ration of digesting rate (pepsin II/ pepsin I),peptide of Example 2(51),334
same,pepsin II digesting rate (µM/min · 1 µg Enz),peptide of Example 2(14),3.85
same,ration of digesting rate (pepsin II/ pepsin I),peptide of Example 2(14),410
same,pepsin II digesting rate (µM/min · 1 µg Enz),peptide of Example 2(39),45.8
same,ration of digesting rate (pepsin II/ pepsin I),peptide of Example 2(39),201
same,pepsin II digesting rate (µM/min · 1 µg Enz),peptide of Example 2(63),29.8
same,ration of digesting rate (pepsin II/ pepsin I),peptide of Example 2(63),169
same,pepsin II digesting rate (µM/min · 1 µg Enz),peptide of Example 2(23),5.9
same,ration of digesting rate (pepsin II/ pepsin I),peptide of Example 2(23),309
same,pepsin II digesting rate (µM/min · 1 µg Enz),peptide of Example 2(22),12.9
same,ration of digesting rate (pepsin II/ pepsin I),peptide of Example 2(22),223
same,pepsin II digesting rate (µM/min · 1 µg Enz),peptide of Example 2(69),73.1
same,ration of digesting rate (pepsin II/ pepsin I),peptide of Example 2(69),74.2
same,pepsin II digesting rate (µM/min · 1 µg Enz),peptide of Example 2(25),5.56
same,ration of digesting rate (pepsin II/ pepsin I),peptide of Example 2(25),890
same,pepsin II digesting rate (µM/min · 1 µg Enz),peptide of Example 2(3),4.23
same,ration of digesting rate (pepsin II/ pepsin I),peptide of Example 2(3),2070
same,pepsin II digesting rate (µM/min · 1 µg Enz),peptide of Example 2(83),70.7
same,ration of digesting rate (pepsin II/ pepsin I),peptide of Example 2(83),29.9
same,pepsin II digesting rate (µM/min · 1 µg Enz),[3],55.4
same,ration of digesting rate (pepsin II/ pepsin I),[3],198
same,pepsin II digesting rate (µM/min · 1 µg Enz),peptide of Example 2(36),21.2
same,ration of digesting rate (pepsin II/ pepsin I),peptide of Example 2(36),194
same,pepsin II digesting rate (µM/min · 1 µg Enz),peptide of Example 2(54),48.4
same,ration of digesting rate (pepsin II/ pepsin I),peptide of Example 2(54),177
same,pepsin II digesting rate (µM/min · 1 µg Enz),peptide of Example 2(24),12.1
same,ration of digesting rate (pepsin II/ pepsin I),peptide of Example 2(24),2080
same,pepsin II digesting rate (µM/min · 1 µg Enz),peptide of Example 2(61),36.8
same,ration of digesting rate (pepsin II/ pepsin I),peptide of Example 2(61),219
same,pepsin II digesting rate (µM/min · 1 µg Enz),peptide of Example 2(33),25.4
same,ration of digesting rate (pepsin II/ pepsin I),peptide of Example 2(33),402
same,pepsin II digesting rate (µM/min · 1 µg Enz),peptide of Example 2(80),15.8
same,ration of digesting rate (pepsin II/ pepsin I),peptide of Example 2(80),105
same,pepsin II digesting rate (µM/min · 1 µg Enz),peptide of Example 2(57),18.8
same,ration of digesting rate (pepsin II/ pepsin I),peptide of Example 2(57),661
same,pepsin II digesting rate (µM/min · 1 µg Enz),peptide of Example 2(7),3.5
same,ration of digesting rate (pepsin II/ pepsin I),peptide of Example 2(7),104
human pepsin I (protein) VDEQPLENYLDMEYFGTIGIGTPAQDFTVVFDTGSSNLWVPSVYCSSLACTNHNRFNPEDSSTYQSTSETVSITYGTGSMTGILGYDTVQVGGISDTNQIFGLSETEPGSFLYYAPFDGILGLAYPSISSSGATPVFDNIWNQGLVSQDLFSVYLSADDQSGSVVIFGGIDSSYYTGSLNWVPVTVEGYWQITVDSITMNGEAIACAEGCQAIVDTGTSLLTGPTSPIANIQSDIGASENSDGDMVVSCSAISSLPDIVFTINGVQYPVPPSAYILQSEGSCISGFQGMNLPTESGELWILGDVFIRQYFTVFDRANNQVGLAPVA,pepsin I digesting rate (µM/min · 1 µg Enz),peptide of Example 2(16),0.0082
same,pepsin I digesting rate (µM/min · 1 µg Enz),[1],0.277
same,pepsin I digesting rate (µM/min · 1 µg Enz),peptide of Example 2(78),2.62
same,pepsin I digesting rate (µM/min · 1 µg Enz),peptide of Example 2(34),0.0216
same,pepsin I digesting rate (µM/min · 1 µg Enz),peptide of Example 2(11),0.0235
same,pepsin I digesting rate (µM/min · 1 µg Enz),peptide of Example 2(45),0.251
same,pepsin I digesting rate (µM/min · 1 µg Enz),[2],0.313
same,pepsin I digesting rate (µM/min · 1 µg Enz),peptide of Example 2(56),0.0194
same,pepsin I digesting rate (µM/min · 1 µg Enz),peptide of Example 2(53),0.0998
same,pepsin I digesting rate (µM/min · 1 µg Enz),peptide of Example 2(18),0.0122
same,pepsin I digesting rate (µM/min · 1 µg Enz),peptide of Example 2(51),0.163
same,pepsin I digesting rate (µM/min · 1 µg Enz),peptide of Example 2(14),0.0094
same,pepsin I digesting rate (µM/min · 1 µg Enz),peptide of Example 2(39),0.228
same,pepsin I digesting rate (µM/min · 1 µg Enz),peptide of Example 2(63),0.176
same,pepsin I digesting rate (µM/min · 1 µg Enz),peptide of Example 2(23),0.0191
same,pepsin I digesting rate (µM/min · 1 µg Enz),peptide of Example 2(22),0.0578
same,pepsin I digesting rate (µM/min · 1 µg Enz),peptide of Example 2(69),0.985
same,pepsin I digesting rate (µM/min · 1 µg Enz),peptide of Example 2(25),0.0063
same,pepsin I digesting rate (µM/min · 1 µg Enz),peptide of Example 2(3),0.002
same,pepsin I digesting rate (µM/min · 1 µg Enz),peptide of Example 2(83),2.37
same,pepsin I digesting rate (µM/min · 1 µg Enz),[3],0.28
same,pepsin I digesting rate (µM/min · 1 µg Enz),peptide of Example 2(36),0.11
same,pepsin I digesting rate (µM/min · 1 µg Enz),peptide of Example 2(54),0.274
same,pepsin I digesting rate (µM/min · 1 µg Enz),peptide of Example 2(24),0.0058
same,pepsin I digesting rate (µM/min · 1 µg Enz),peptide of Example 2(61),0.168
same,pepsin I digesting rate (µM/min · 1 µg Enz),peptide of Example 2(33),0.0632
same,pepsin I digesting rate (µM/min · 1 µg Enz),peptide of Example 2(80),0.15
same,pepsin I digesting rate (µM/min · 1 µg Enz),peptide of Example 2(57),0.0284
same,pepsin I digesting rate (µM/min · 1 µg Enz),peptide of Example 2(7),0.0335
